Data: PMC3334378

Target: fibronectin (UniProt P02751)
Sequence of UniProt P02751 (P02751 32-2477): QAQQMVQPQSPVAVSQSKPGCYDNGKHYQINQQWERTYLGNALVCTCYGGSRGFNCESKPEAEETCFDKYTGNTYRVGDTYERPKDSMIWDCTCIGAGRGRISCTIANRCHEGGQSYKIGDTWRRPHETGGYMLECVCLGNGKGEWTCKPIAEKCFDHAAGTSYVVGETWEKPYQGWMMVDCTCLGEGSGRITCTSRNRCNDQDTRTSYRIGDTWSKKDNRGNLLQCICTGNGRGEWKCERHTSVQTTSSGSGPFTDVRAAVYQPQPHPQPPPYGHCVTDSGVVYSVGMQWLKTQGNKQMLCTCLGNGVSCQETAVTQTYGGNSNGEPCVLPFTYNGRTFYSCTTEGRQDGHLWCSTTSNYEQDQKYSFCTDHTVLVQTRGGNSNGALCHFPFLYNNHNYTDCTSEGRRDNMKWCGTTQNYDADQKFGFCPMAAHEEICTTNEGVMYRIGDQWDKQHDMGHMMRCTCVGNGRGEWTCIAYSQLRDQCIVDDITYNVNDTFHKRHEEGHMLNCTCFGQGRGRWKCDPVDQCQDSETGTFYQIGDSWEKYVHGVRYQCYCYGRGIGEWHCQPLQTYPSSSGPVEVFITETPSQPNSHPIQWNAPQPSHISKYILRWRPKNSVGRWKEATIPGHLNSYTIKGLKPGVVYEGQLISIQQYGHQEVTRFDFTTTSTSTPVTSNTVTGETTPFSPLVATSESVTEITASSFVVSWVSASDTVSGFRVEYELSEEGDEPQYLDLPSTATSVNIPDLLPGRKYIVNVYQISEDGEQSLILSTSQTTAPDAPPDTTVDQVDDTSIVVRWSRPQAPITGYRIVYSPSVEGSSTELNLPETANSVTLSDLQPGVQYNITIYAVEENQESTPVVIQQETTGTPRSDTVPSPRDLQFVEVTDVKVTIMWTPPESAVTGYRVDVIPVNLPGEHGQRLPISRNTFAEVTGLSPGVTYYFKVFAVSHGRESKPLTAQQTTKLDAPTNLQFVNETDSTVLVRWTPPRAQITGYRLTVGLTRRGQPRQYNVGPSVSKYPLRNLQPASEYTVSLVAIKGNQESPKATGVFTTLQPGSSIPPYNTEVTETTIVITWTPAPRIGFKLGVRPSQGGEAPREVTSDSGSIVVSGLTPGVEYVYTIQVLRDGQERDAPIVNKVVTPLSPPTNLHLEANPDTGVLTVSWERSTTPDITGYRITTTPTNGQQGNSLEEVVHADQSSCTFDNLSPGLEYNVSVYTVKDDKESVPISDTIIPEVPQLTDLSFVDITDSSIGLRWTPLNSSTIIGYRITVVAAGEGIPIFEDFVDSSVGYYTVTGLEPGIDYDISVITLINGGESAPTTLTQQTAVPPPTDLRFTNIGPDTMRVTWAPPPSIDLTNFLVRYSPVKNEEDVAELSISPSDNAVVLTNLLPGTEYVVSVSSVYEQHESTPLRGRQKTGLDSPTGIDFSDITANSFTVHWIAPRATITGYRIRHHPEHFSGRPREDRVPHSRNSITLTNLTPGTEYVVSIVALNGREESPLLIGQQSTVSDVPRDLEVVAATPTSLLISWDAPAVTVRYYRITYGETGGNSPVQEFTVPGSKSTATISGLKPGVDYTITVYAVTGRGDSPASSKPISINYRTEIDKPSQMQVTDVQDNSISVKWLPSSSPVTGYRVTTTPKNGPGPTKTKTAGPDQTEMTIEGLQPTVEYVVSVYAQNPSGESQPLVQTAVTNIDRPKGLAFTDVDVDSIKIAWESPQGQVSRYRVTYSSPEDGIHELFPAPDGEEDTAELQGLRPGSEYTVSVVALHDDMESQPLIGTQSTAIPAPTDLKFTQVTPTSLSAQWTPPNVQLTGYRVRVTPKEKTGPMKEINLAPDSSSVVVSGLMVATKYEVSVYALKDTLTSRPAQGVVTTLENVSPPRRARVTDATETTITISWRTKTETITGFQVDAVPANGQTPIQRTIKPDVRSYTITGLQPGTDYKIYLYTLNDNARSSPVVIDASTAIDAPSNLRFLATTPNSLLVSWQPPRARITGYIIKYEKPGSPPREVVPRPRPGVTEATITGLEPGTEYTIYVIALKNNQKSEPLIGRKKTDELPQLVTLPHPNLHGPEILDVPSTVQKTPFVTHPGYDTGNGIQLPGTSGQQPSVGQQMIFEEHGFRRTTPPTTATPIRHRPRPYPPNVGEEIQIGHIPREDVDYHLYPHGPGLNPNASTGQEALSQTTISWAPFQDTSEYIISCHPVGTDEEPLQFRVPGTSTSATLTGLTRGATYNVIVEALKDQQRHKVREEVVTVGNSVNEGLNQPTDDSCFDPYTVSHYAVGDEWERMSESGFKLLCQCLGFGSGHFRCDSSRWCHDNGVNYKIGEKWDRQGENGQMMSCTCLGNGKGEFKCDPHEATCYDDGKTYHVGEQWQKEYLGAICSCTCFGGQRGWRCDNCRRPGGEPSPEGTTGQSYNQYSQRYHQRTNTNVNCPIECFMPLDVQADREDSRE

Sequence of β1-integrin (P49134 21-799): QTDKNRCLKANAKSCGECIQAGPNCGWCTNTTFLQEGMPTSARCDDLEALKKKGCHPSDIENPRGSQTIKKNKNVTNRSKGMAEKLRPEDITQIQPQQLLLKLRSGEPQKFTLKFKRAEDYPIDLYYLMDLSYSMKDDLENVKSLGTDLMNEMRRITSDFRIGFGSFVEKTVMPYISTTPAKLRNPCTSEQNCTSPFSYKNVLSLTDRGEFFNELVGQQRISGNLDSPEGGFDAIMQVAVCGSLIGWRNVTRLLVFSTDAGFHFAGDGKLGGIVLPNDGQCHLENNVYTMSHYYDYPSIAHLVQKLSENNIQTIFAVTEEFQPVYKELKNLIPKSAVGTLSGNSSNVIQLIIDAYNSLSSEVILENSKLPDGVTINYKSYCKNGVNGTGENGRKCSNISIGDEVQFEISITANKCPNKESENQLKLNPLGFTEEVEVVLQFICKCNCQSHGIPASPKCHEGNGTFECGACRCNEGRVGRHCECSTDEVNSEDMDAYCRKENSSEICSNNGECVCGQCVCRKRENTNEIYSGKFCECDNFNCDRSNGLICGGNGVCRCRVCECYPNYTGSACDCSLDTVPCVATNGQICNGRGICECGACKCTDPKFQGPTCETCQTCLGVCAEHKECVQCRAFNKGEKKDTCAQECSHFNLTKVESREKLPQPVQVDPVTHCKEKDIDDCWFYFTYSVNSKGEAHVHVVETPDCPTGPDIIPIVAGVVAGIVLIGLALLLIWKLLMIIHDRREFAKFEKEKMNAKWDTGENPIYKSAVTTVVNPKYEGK

“β1-integrin (from UniProt P49134 21-799) (receptor)” was tested, and the inhibition of adhesion of 3Y1 cells to fibronectin-coated plates (60 min, 37°C) by β1-integrin blocking antibody (hamster anti-rat CD29, 50 µg/mL) was 51% and the inhibition of adhesion of HR-3Y1-2 cells to fibronectin-coated plates (60 min, 37°C) by β1-integrin blocking antibody (hamster anti-rat CD29, 50 µg/mL) was 57%.
